Among the data in US20210069341A1 (published 2021) are Kd values, retold here.

The target of one test is T1, human FcγRIIb (human, UniProt P31994 46-217).
T1 chain: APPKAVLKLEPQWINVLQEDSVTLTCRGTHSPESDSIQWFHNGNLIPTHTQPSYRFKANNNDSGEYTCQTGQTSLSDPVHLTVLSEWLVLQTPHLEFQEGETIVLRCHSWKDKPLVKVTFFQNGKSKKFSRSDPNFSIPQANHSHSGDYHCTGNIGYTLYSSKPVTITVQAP
Put plainly: binding affinity.

For another test, the target named is T2, human FcγRI (human, UniProt P12314 16-288).
T2 chain: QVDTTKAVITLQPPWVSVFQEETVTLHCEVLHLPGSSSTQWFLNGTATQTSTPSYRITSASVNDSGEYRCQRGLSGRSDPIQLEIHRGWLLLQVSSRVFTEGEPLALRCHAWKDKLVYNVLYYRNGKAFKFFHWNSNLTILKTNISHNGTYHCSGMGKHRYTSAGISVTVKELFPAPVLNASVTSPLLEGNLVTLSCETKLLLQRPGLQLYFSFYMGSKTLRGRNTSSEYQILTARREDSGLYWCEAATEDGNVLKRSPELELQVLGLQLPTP
As to the kind of experiment: binding affinity.

Test [1] deals with human FcγRIIIa, 158V allele (human, UniProt P08637 17-208). Put plainly: binding affinity.
Another test concerns the target T3, human FcγRIIa (human, UniProt P12318 36-218).
T3 chain: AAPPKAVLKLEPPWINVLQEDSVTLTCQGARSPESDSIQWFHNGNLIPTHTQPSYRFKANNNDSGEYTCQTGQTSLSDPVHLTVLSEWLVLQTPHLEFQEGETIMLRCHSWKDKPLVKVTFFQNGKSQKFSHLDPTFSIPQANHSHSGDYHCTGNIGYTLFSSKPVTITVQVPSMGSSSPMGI
As to the kind of experiment: binding affinity.

Test [2] has as its target human FcγRIIIa, 158F allele (human, UniProt P08637 17-208). As to the kind of experiment: binding affinity.
The target in another test is human FcRn protein (human, UniProt P55899 24-297; P61769 21-119). Put plainly: binding affinity; pH 6.
Sequence of human FcRn protein (P55899 24-297, chain 1 of 2): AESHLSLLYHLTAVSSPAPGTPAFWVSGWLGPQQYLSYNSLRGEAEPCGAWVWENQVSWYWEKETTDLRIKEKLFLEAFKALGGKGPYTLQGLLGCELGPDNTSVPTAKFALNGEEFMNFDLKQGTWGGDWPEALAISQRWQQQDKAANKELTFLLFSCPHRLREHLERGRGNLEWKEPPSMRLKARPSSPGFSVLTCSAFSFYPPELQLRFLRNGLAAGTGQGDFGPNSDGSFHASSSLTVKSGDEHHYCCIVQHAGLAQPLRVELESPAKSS
Sequence of human FcRn protein (P61769 21-119, chain 2 of 2): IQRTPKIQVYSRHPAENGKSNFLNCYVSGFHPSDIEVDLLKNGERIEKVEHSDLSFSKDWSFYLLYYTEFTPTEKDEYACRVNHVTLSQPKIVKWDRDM

Sequence of human FcγRIIIa, 158V allele (P08637 17-208 F176V): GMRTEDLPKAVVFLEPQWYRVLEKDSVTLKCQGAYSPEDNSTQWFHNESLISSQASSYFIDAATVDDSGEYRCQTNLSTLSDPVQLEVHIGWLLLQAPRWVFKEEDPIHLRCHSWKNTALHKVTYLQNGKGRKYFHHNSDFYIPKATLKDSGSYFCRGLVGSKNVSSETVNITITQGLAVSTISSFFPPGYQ
Sequence of human FcγRIIIa, 158F allele (P08637 17-208): as the sequence (P08637 17-208 F176V) above, with V160F counted along it

B1: antibody with the L234F/S239A/S442C triple mutation (Fc receptor affinity analysis) (antibody)
Fc: APEFLGGPAVFLFPPKPKDTLMISRTPEVTCVVVDVSHEDPEVKFNWYVDGVEVHNAKTKPREEQYNSTYRVVSVLTVLHQDWLNGKEYKCKVSNKALPAPIEKTISKAKGQPREPQVYTLPPSRDELTKNQVSLTCLVKGFYPSDIAVEWESNGQPENNYKTTPPVLDSDGSFFLYSKLTVDKSRWQQGNVFSCSVMHEALHNHYTQKSLCLSPGK
Usually Kd stands for the free concentration of one partner at which half of the binding sites on the other are occupied at equilibrium, for simple one-to-one binding. A higher Kd goes with weaker binding. Take B1: the Kd with human FcγRIIb is 6310 nM; with human FcγRI, about 16 nM; in test [1], 1460 nM; in the test with human FcγRIIa, 2540 nM; in test [2] it was 5700 nM; with human FcRn protein it was 976 nM.

B2: antibody with the C239ins cysteine engineered Fc region (Fc receptor affinity analysis) (antibody)
Fc: APELLGGPSCVFLFPPKPKDTLMISRTPEVTCVVVDVSHEDPEVKFNWYVDGVEVHNAKTKPREEQYNSTYRVVSVLTVLHQDWLNGKEYKCKVSNKALPAPIEKTISKAKGQPREPQVYTLPPSRDELTKNQVSLTCLVKGFYPSDIAVEWESNGQPENNYKTTPPVLDSDGSFFLYSKLTVDKSRWQQGNVFSCSVMHEALHNHYTQKSLSLSPGK
B2: the Kd in the test with human FcγRI is about 133 nM; in the test with human FcRn protein it was 1050 nM.
